Results taken from the supplement of paper PMC9112550, “Optimization of the antimicrobial peptide Bac7 by deep mutational scanning” (BMC Biology, 2022).

Test system: Escherichia coli TOP10
Assay: shrunken log2 fold change of peptide-encoding DNA abundance (4.5 h post-induction vs induction); higher = less antimicrobial activity (less host growth inhibition)
Conditions: time post-induction: 4.5 h; library: site-saturation at positions 5, 18, 19, 20
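Also: peptides expressed intracellularly from a pBAD plasmid library in pooled LB shake-flask culture, induced with 0.3% L-arabinose, DNA abundance read by NGS, three biological replicates, DESeq2 with apeglm shrinkage.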

Question: Which “shrunken log2 fold change” value does the source give for RRIRRRPPRLPRPRPRPAHMPRP here?
Answer: The value was 0.405.

Question: Which “shrunken log2 fold change” value does the source give for RRIRRRPPRLPRPRPRPALFPRP here?
Answer: Its value is 0.128.

Question: How did the “shrunken log2 fold change” value turn out when RRIRRRPPRLPRPRPRPALLPRP was run?
Answer: Its value is -0.0136.

Question: How did the “shrunken log2 fold change” value turn out when RRIRRRPPRLPRPRPRPAMDPRP was run?
Answer: Its value is 0.0975.

Question: RRIRRRPPRLPRPRPRPANEPRP was tested. Which “shrunken log2 fold change” value did it give?
Answer: Its value is 0.245.

Question: RRIRRRPPRLPRPRPRPANNPRP was tested. Which “shrunken log2 fold change” value did it give?
Answer: The value was -0.0615.

Question: With RRIRRRPPRLPRPRPRPAPLPRP as the sequence, how does the “shrunken log2 fold change” value read?
Answer: Its value is 0.857.

Question: RRIRRRPPRLPRPRPRPAPMPRP was tested. Which “shrunken log2 fold change” value did it give?
Answer: Its value is 0.957.

Question: RRIRRRPPRLPRPRPRPAQAPRP was tested. Which “shrunken log2 fold change” value did it give?
Answer: The value was 0.233.

Question: How did the “shrunken log2 fold change” value turn out when RRIRRRPPRLPRPRPRPAQEPRP was run?
Answer: Its value is 0.146.

Question: How did the “shrunken log2 fold change” value turn out when RRIRRRPPRLPRPRPRPAQGPRP was run?
Answer: Its value is -0.179.

Question: With RRIRRRPPRLPRPRPRPAQQPRP as the sequence, how does the “shrunken log2 fold change” value read?
Answer: Its value is 0.938.

Question: For RRIRRRPPRLPRPRPRPAQVPRP, which “shrunken log2 fold change” value is on record?
Answer: Its value is -0.0303.

Question: How did the “shrunken log2 fold change” value turn out when RRIRRRPPRLPRPRPRPARLPRP was run?
Answer: The value was 0.269.

Question: RRIRRRPPRLPRPRPRPASGPRP was tested. Which “shrunken log2 fold change” value did it give?
Answer: The value was 0.302.

Question: For RRIRRRPPRLPRPRPRPASLPRP, which “shrunken log2 fold change” value is on record?
Answer: The value was 0.338.

Question: With RRIRRRPPRLPRPRPRPASSPRP as the sequence, how does the “shrunken log2 fold change” value read?
Answer: Its value is -0.0219.

Question: Which “shrunken log2 fold change” value does the source give for RRIRRRPPRLPRPRPRPATPPRP here?
Answer: Its value is 0.783.

Question: For RRIRRRPPRLPRPRPRPAVRPRP, which “shrunken log2 fold change” value is on record?
Answer: The value was 0.0847.

Question: Which “shrunken log2 fold change” value does the source give for RRIRRRPPRLPRPRPRPAWCPRP here?
Answer: Its value is 0.568.

Question: Which “shrunken log2 fold change” value does the source give for RRIRRRPPRLPRPRPRPAWRPRP here?
Answer: The value was 0.504.

Question: For RRIRRRPPRLPRPRPRPAWVPRP, which “shrunken log2 fold change” value is on record?
Answer: Its value is 1.75.

Question: How did the “shrunken log2 fold change” value turn out when RRIRRRPPRLPRPRPRPAYTPRP was run?
Answer: Its value is -0.0735.

Question: With RRIRRRPPRLPRPRPRPAYYPRP as the sequence, how does the “shrunken log2 fold change” value read?
Answer: Its value is 0.0681.

Question: With RRIRRRPPRLPRPRPRPCAWPRP as the sequence, how does the “shrunken log2 fold change” value read?
Answer: The value was 0.0864.

Question: Which “shrunken log2 fold change” value does the source give for RRIRRRPPRLPRPRPRPCDKPRP here?
Answer: Its value is -0.00163.

Question: With RRIRRRPPRLPRPRPRPCERPRP as the sequence, how does the “shrunken log2 fold change” value read?
Answer: The value was 0.137.

Question: Which “shrunken log2 fold change” value does the source give for RRIRRRPPRLPRPRPRPCFTPRP here?
Answer: Its value is -0.156.

Question: How did the “shrunken log2 fold change” value turn out when RRIRRRPPRLPRPRPRPCFYPRP was run?
Answer: The value was -0.187.

Question: RRIRRRPPRLPRPRPRPCGTPRP was tested. Which “shrunken log2 fold change” value did it give?
Answer: The value was 0.363.

Question: RRIRRRPPRLPRPRPRPCGVPRP was tested. Which “shrunken log2 fold change” value did it give?
Answer: The value was 0.0719.

Question: How did the “shrunken log2 fold change” value turn out when RRIRRRPPRLPRPRPRPCHAPRP was run?
Answer: Its value is -0.0577.

Question: Which “shrunken log2 fold change” value does the source give for RRIRRRPPRLPRPRPRPCHVPRP here?
Answer: Its value is -0.238.

Question: RRIRRRPPRLPRPRPRPCIDPRP was tested. Which “shrunken log2 fold change” value did it give?
Answer: The value was -0.211.

Question: How did the “shrunken log2 fold change” value turn out when RRIRRRPPRLPRPRPRPCINPRP was run?
Answer: The value was 2.42.

Question: With RRIRRRPPRLPRPRPRPCIPPRP as the sequence, how does the “shrunken log2 fold change” value read?
Answer: The value was -0.867.

Question: Which “shrunken log2 fold change” value does the source give for RRIRRRPPRLPRPRPRPCLRPRP here?
Answer: Its value is -0.0202.

Question: With RRIRRRPPRLPRPRPRPCMEPRP as the sequence, how does the “shrunken log2 fold change” value read?
Answer: The value was -0.174.

Question: For RRIRRRPPRLPRPRPRPCNAPRP, which “shrunken log2 fold change” value is on record?
Answer: The value was -0.105.

Question: For RRIRRRPPRLPRPRPRPCQHPRP, which “shrunken log2 fold change” value is on record?
Answer: Its value is -0.153.

Question: For RRIRRRPPRLPRPRPRPCTAPRP, which “shrunken log2 fold change” value is on record?
Answer: The value was 0.866.

Question: With RRIRRRPPRLPRPRPRPCWPPRP as the sequence, how does the “shrunken log2 fold change” value read?
Answer: Its value is 0.0865.

Question: For RRIRRRPPRLPRPRPRPDAHPRP, which “shrunken log2 fold change” value is on record?
Answer: Its value is -0.00208.

Question: For RRIRRRPPRLPRPRPRPDAIPRP, which “shrunken log2 fold change” value is on record?
Answer: Its value is -0.0233.

Question: RRIRRRPPRLPRPRPRPDAYPRP was tested. Which “shrunken log2 fold change” value did it give?
Answer: Its value is 0.249.

Question: For RRIRRRPPRLPRPRPRPDEEPRP, which “shrunken log2 fold change” value is on record?
Answer: Its value is 0.526.

Question: How did the “shrunken log2 fold change” value turn out when RRIRRRPPRLPRPRPRPDEKPRP was run?
Answer: Its value is 0.135.

Question: For RRIRRRPPRLPRPRPRPDFSPRP, which “shrunken log2 fold change” value is on record?
Answer: The value was -0.18.

Question: RRIRRRPPRLPRPRPRPDGYPRP was tested. Which “shrunken log2 fold change” value did it give?
Answer: Its value is -0.0109.

Question: For RRIRRRPPRLPRPRPRPDHDPRP, which “shrunken log2 fold change” value is on record?
Answer: The value was 0.335.

Question: RRIRRRPPRLPRPRPRPDHLPRP was tested. Which “shrunken log2 fold change” value did it give?
Answer: The value was -0.0237.

Question: For RRIRRRPPRLPRPRPRPDHQPRP, which “shrunken log2 fold change” value is on record?
Answer: Its value is -0.18.

Question: RRIRRRPPRLPRPRPRPDIQPRP was tested. Which “shrunken log2 fold change” value did it give?
Answer: Its value is 0.0298.

Question: Which “shrunken log2 fold change” value does the source give for RRIRRRPPRLPRPRPRPDKFPRP here?
Answer: Its value is 0.0835.

Question: RRIRRRPPRLPRPRPRPDKHPRP was tested. Which “shrunken log2 fold change” value did it give?
Answer: Its value is 0.157.

Question: For RRIRRRPPRLPRPRPRPDLIPRP, which “shrunken log2 fold change” value is on record?
Answer: Its value is 0.0201.

Question: With RRIRRRPPRLPRPRPRPDLNPRP as the sequence, how does the “shrunken log2 fold change” value read?
Answer: The value was 0.16.

Question: RRIRRRPPRLPRPRPRPDNLPRP was tested. Which “shrunken log2 fold change” value did it give?
Answer: Its value is 0.000421.

Question: RRIRRRPPRLPRPRPRPDNSPRP was tested. Which “shrunken log2 fold change” value did it give?
Answer: The value was -0.078.

Question: Which “shrunken log2 fold change” value does the source give for RRIRRRPPRLPRPRPRPDPVPRP here?
Answer: Its value is 0.0811.

Question: For RRIRRRPPRLPRPRPRPDQEPRP, which “shrunken log2 fold change” value is on record?
Answer: The value was 0.0223.

Question: Which “shrunken log2 fold change” value does the source give for RRIRRRPPRLPRPRPRPDTQPRP here?
Answer: Its value is 0.162.

Question: RRIRRRPPRLPRPRPRPDVFPRP was tested. Which “shrunken log2 fold change” value did it give?
Answer: The value was 0.06.

Question: How did the “shrunken log2 fold change” value turn out when RRIRRRPPRLPRPRPRPDYDPRP was run?
Answer: Its value is -0.0449.

Question: For RRIRRRPPRLPRPRPRPDYTPRP, which “shrunken log2 fold change” value is on record?
Answer: The value was -0.0883.

Question: How did the “shrunken log2 fold change” value turn out when RRIRRRPPRLPRPRPRPEAAPRP was run?
Answer: Its value is 1.31.

Question: How did the “shrunken log2 fold change” value turn out when RRIRRRPPRLPRPRPRPEAEPRP was run?
Answer: The value was 0.853.

Question: For RRIRRRPPRLPRPRPRPEAMPRP, which “shrunken log2 fold change” value is on record?
Answer: Its value is -0.0491.

Question: RRIRRRPPRLPRPRPRPECHPRP was tested. Which “shrunken log2 fold change” value did it give?
Answer: The value was 0.171.

Question: With RRIRRRPPRLPRPRPRPEDYPRP as the sequence, how does the “shrunken log2 fold change” value read?
Answer: Its value is 0.252.

Question: For RRIRRRPPRLPRPRPRPEESPRP, which “shrunken log2 fold change” value is on record?
Answer: Its value is 1.5.

Question: With RRIRRRPPRLPRPRPRPEFNPRP as the sequence, how does the “shrunken log2 fold change” value read?
Answer: The value was 0.25.

Question: Which “shrunken log2 fold change” value does the source give for RRIRRRPPRLPRPRPRPEFQPRP here?
Answer: Its value is -0.0288.

Question: RRIRRRPPRLPRPRPRPEGTPRP was tested. Which “shrunken log2 fold change” value did it give?
Answer: Its value is 0.28.

Question: For RRIRRRPPRLPRPRPRPEHNPRP, which “shrunken log2 fold change” value is on record?
Answer: Its value is 0.183.
